Data set [1] has as its target Stl^NT-Avi, biotinylated Stl 1-159 for the BLI sensor (Staphylococcus aureus, UniProt Q9F0J8 1-159, biotin on the Avi-tag). Description: BLI. (In general: BLI is a label-free optical method that tracks binding on a fibre tip over time.)
The target in data set [2] is Stl-Avi, biotinylated full-length Stl for the BLI sensor (Staphylococcus aureus, UniProt Q9F0J8 1-267, biotin on the Avi-tag). The data set is described as follows: BLI.
The data set “native MS” concerns the molecule itself. The data set is described as follows: native MS.

B1: Mycobacterium tuberculosis dUTPase, wild type (MtDUT^WT) (enzyme)
chain: MSTTLAIVRLDPGLPLPSRAHDGDAGVDLYSAEDVELAPGRRALVRTGVAVAVPFGMVGLVHPRSGLATRVGLSIVNSPGTIDAGYRGEIKVALINLDPAAPIVVHRGDRIAQLLVQRVELVELVEVSSFDEAGLASTSRGDGGHGSSGGHASL
Broadly, the Kd is the concentration at which binding is half-saturated. A word on the koff: it is a measure of how fast the partners let go of each other. A high value points to fast dissociation. One may read the kon as the second-order rate constant of association. Broadly, the stoichiometry N is the number of molecules, sites or subunits per partner or assembly. For the molecule B1, in data set [1], the Kd is 0.19 ± 0.001 nM, the koff worked out at 0.000103 ± 0.04 s⁻¹ and the kon is 542000 ± 0.01 M⁻¹ s⁻¹. Besides, in data set [2], the Kd was less than 0.001 nM, the koff was less than 1e-07 s⁻¹ and the kon came out at 270000 ± 0.01 M⁻¹ s⁻¹. For the same molecule, the “stoichiometry N” value in “native MS” was 3 subunits in the oligomer.

These data come from paper PMC11544220 (Scientific Reports, 2024).
